# Laboratory results from patent US20080159989A1.
# Target: Nodal (mouse) (UniProt P43021)
Substance,"% of beating EB (Cripto-/- ES cells transfected with Cerberus, EBs treated with recombinant Cripto) (% of beating EB)","% of beating EB (Cripto-/- ES cells transfected with Cerberus-S, EBs treated with recombinant Cripto) (% of beating EB)"
Cerberus,10.3,
Cerberus-Short (CerS),,8.3
